According to publication PMC12412786 (Nucleic Acids Research, 2025):
Values joined by “and” are separate entries in the source; they are usually repeats but may differ in a detail not shown here. Identical values can stand only once.

Target: the molecule itself
Test: mass photometry

B1: murine PARP2 (poly(ADP-ribose) polymerase 2) (enzyme)
chain: MAPRRQRSGSGRRVLNEAKKVDNGNKATEDDSPPGKKMRTCQRKGPMAGGKDADRTKDNRDSVKTLLLKGKAPVDPECAAKLGKAHVYCEGDDVYDVMLNQTNLQFNNNKYYLIQLLEDDAQRNFSVWMRWGRVGKTGQHSLVTCSGDLNKAKEIFQKKFLDKTKNNWEDRENFEKVPGKYDMLQMDYAASTQDESKTKEEETLKPESQLDLRVQELLKLICNVQTMEEMMIEMKYDTKRAPLGKLTVAQIKAGYQSLKKIEDCIRAGQHGRALVEACNEFYTRIPHDFGLSIPPVIRTEKELSDKVKLLEALGDIEIALKLVKSERQGLEHPLDQHYRNLHCALRPLDHESNEFKVISQYLQSTHAPTHKDYTMTLLDVFEVEKEGEKEAFREDLPNRMLLWHGSRLSNWVGILSHGLRVAPPEAPITGYMFGKGIYFADMSSKSANYCFASRLKNTGLLLLSEVALGQCNELLEANPKAQGLLRGKHSTKGMGKMAPSPAHFITLNGSTVPLGPASDTGILNPEGYTLNYNEFIVYSPNQVRMRYLLKIQFNFLQLW
For B1, the “stoichiometry N” value was 2 and 3.
